Molecular target: the molecule itself
Experiment: native gel or EMSA

B1: recombinant full size LARP6 purified from E. coli (natural protein)
chain: MAQSGGEARPGPKTAVQIRVAIQEAEDVDELEDEEEGAETRGAGDPARYLSPGWGSASEEEPSRGHSGTTASGGENEREDLEQEWKPPDEELIKKLVDQIEFYFSDENLEKDAFLLKHVRRNKLGYVSVKLLTSFKKVKHLTRDWRTTAHALKYSVVLELNEDHRKVRRTTPVPLFPNENLPSKMLLVYDLYLSPKLWALATPQKNGRVQEKVMEHLLKLFGTFGVISSVRILKPGRELPPDIRRISSRYSQVGTQECAIVEFEEVEAAIKAHEFMITESQGKENMKAVLIGMKPPKKKPAKDKNHDEEPTASIHLNKSLNKRVEELQYMGDESSANSSSDPESNPTSPMAGRRHAATNKLSPSGHQNLFLSPNASPCTSPWSSPLAQRKGVSRKSPLAEEGRLNCSTSPEIFRKCMDYSSDSSVTPSGSPWVRRRRQAEMGTQEKSPGTSPLLSRKMQTADGLPVGVLRLPRGPDNTRGFHGHERSRACV
  binding result: binds
